Experimental data taken from patent publication US20150329638A1 (Biogen, published 2015).
Where a chain is given by its changes, count along the chain named. Numbers in names are those of the source. One block for each binder: values may come before it.

How the values were obtained:
mouse DR6 = biological target: T1, mouse DR6 (mouse, UniProt Q9EPU5 42-655); test: flow cytometry on HEK293 cells transfected with full length DR6
T1 sequence: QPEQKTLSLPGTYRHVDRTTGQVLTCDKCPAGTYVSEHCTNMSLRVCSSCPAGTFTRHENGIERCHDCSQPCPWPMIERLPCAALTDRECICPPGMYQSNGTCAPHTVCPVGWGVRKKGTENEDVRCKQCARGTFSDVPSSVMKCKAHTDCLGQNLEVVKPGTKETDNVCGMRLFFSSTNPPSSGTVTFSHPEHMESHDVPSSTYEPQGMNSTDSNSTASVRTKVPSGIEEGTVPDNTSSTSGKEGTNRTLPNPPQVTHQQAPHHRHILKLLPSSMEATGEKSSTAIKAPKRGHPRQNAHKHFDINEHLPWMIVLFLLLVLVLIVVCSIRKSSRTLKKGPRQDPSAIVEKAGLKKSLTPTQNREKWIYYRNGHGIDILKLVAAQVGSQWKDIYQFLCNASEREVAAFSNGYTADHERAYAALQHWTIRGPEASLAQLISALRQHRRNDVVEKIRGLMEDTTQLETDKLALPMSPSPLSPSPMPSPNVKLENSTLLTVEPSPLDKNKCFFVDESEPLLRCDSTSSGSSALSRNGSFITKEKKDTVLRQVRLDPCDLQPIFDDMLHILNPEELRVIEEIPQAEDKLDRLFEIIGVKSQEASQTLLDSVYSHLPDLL
Protocol: Six million HEK293 cells were transfected with 10 ug of plasmid DNA, which encoded full length human, rat, or mouse DR6. Three days after transfection, approximately 50,000 cells in 200 μL of PBS, 1% BSA, 0.1% NaN3 (FACS buffer) were analyzed. Cells were pelleted and resuspended in 150 μL of serial dilutions of anti-DR6 antibodies in FACS buffer. Samples were incubated for 1 hour on ice with occasional agitation and then washed three times. Bound DR6 antibody was visualized with PE-labeled goat F(ab)₂ anti-human Fab (for Dyax Fabs) or anti-mouse IgG specific antibody (for monoclonal antibodies) (Jackson Labs). […] Although both antibodies bind to DR6, the EO4 antibody leads to cell death, whereas 5D10 promotes cell survival. FIG. 5B.

[1] = biological target: T2, human DR6 (Death Receptor-6, TNFRSF21) (human, UniProt O75509 42-655); test: cell-based or functional assay
T2 sequence: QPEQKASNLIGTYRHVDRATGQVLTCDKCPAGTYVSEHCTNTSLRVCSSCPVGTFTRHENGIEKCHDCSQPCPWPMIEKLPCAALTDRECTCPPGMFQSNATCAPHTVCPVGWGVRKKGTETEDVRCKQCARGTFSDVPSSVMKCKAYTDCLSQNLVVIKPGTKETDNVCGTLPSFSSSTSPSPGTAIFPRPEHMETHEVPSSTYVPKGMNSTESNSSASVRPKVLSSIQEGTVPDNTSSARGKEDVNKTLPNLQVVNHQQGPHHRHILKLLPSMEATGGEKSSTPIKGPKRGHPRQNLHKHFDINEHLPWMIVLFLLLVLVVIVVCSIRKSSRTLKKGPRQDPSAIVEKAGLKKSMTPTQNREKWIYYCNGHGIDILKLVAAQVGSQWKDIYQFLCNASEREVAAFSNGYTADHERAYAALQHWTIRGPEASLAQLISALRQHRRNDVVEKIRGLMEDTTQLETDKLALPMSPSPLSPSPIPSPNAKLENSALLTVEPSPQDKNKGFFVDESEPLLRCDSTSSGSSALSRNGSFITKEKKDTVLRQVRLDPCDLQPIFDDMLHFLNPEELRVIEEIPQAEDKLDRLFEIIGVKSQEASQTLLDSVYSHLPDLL

[2] = biological target: T2, human DR6 (Death Receptor-6, TNFRSF21); test: FACS direct binding on transiently transfected HEK293 cells
Protocol: (§1) The apparent Kd of 5D10 and M53-E04 for rat and human DR6 was estimated using transiently transfected HEK293 cells in a FACS direct binding assay. Approximately 50,000 cells in 150 uL of PBS, 1% BSA, 0.1% NaN3 (FACS buffer) were analyzed. Cells were pelleted and resuspended in 150 uL of serial dilutions of the antibodies in FACS buffer. Samples were incubated for 1 hr on ice with occasional agitation and then washed 3 times. Bound antibodies were visualized with PE-labeled goat F(ab)2 anti-human or anti-mouse Fab specific antibody (Jackson Labs).
(§2) The binding affinities of 5D10 or M53-E04 to cyno monkey DR6 were similar to human DR6. A single point mutation (Y93A) was introduced to 5D10 based on the co-crystal structure of DR6-5D10 (FIG. 6).

rat DR6 [3] = biological target: T3, rat DR6 (rat, UniProt D3ZF92 42-655); test: as above
T3 construct: Full length rat DR6 expressed on transfected HEK293 cells
T3 sequence: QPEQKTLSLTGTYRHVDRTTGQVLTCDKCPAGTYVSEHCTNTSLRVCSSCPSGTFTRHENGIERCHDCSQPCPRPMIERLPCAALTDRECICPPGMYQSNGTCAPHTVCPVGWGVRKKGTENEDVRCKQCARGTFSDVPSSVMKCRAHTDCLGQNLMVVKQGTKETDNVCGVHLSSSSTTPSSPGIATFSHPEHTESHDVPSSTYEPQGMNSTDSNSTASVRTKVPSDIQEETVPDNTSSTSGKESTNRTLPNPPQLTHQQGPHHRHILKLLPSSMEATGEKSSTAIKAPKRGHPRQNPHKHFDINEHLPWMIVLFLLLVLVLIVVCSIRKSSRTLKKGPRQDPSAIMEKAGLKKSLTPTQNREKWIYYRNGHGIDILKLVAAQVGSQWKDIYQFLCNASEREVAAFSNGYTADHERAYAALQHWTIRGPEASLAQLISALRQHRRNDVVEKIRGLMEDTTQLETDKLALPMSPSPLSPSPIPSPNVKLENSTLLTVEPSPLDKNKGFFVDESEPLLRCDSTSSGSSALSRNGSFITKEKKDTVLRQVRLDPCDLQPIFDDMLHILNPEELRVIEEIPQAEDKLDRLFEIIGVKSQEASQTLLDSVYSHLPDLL
Protocol: as §1, §2

rat DR6 [4] = biological target: T3, rat DR6; test: binding to rat DR6 (FIG. 6)

binding result (mouse DR6): binds
EC50 (rat DR6 [3]): 60 nM
B1: 1P5D10.2 (antibody, V domains shown)
VH: EVQLVESGGGLVKPGGSLKLSCAASGFTFSDYYMYWVRQTPEKRLEWVATISDGGLYTYYQDSVKGRFTISRDNAKNNLYLQMSSLKSEDTAMYYCAREDDYDGDFYTMDYWGQGTSVTVSS
VL: QIVLTQSPAIMSASPGEKVTITCSASSSVSYMHWFQQKPGTSPKLWIYSTSNLASGVPARFSGSGSGTSYSLTISRMEAEDAATYYCQQRSSYPLTFGAGTKLELK
notes: Murine monoclonal antibody from a hybridoma; also called DR6 antagonist monoclonal antibody 5D10; anti-DR6 antibody 5D10
motor neuron survival following sodium arsenite treatment (cell number) [1]: 3 fold
EC50 [2]: 0.1 nM

binding result (rat DR6 [4]): binds
B2: 1P5D10.2(Y93A) (antibody, V domains shown)
VH: B1 VH
VL: B1 VL with Y93A
notes: Single point mutant (Y93A, light chain variable domain) of 5D10; also called 5D10Y93A

binding result (mouse DR6): binds
EC50 (rat DR6 [3]): 0.1 nM
B3: M53-E04 (Fab, V domains shown)
VH: EVQLLESGGGLVQPGGSLRLSCAASGFTFSNYEMSWVRQAPGKGLEWVSSIYSSGGETLYADSVKGRFTISRDNSKNTLYLQMNSLRAEDTAVYYCARDGAADYWGQGTLVTVSS
VL: QSELTQPPSASGTPGQWVTISCSGSTSNIGNNYVYWYQQLPGTAPKLLIYTNNQRPSGVPDRFSGSKSGTSASLAISGLRSEDEADYYCATWDDSLYAPVFGGGTKVTVL
notes: The format in the assay (Fab or full IgG) is therefore not certain; also called EO4 antibody; E04 mAb
EC50 [2]: 0.05 nM
